The values below come from paper doi:10.1101/2023.11.05.564366v1.

What all share (experiment): purified protein
Holding throughout (conditions): 50 °C, 1100 rpm

Substrate in data set [1]: O=C(O)c1ccc(C(=O)OCCO)cc1
Substrate in data set [2]: O=C(O)c1ccc(C(=O)OCCOC(=O)c2ccc(C(=O)OCCOC(=O)c3ccc(C(=O)O)cc3)cc2)cc1
Substrate in data set [3]: O=C(OCCO)c1ccc(C(=O)OCCO)cc1
Substrate in data set [4]: O=C(O)c1ccc(C(=O)OCCOC(=O)c2ccc(C(=O)OCCO)cc2)cc1

B1: LCCICCG (unidentified prokaryotic organism; D238C/F243I/S283C/Y127G) (protein)
chain: QSNPYQRGPNPTRSALTADGPFSVATYTVSRLSVSGFGGGVIYYPTGTSLTFGGIAMSPGYTADASSLAWLGRRLASHGFVVLVINTNSRFDGPDSRASQLSAALNYLRTSSPSAVRARLDANRLAVAGHSMGGGGTLRIAEQNPSLKAAVPLTPWHTDKTFNTSVPVLIVGAEADTVAPVSQHAIPFYQNLPSTTPKVYVELCNASHIAPNSNNAAISVYTISWMKLWVDNDTRYRQFLCNVNDPALCDFRTNNRHCQ
B1: the Km worked out at 920 ± 220 µM in “purified protein [1]”, 670 ± 610 µM in the data set “purified protein [2]”, 750 ± 270 µM in the data set “purified protein [3]” and 210 ± 91 µM in the data set “purified protein [4]”. The kcat came to 0.058 ± 0.0024 s⁻¹ in “purified protein [1]”, 331 ± 142 s⁻¹ in “purified protein [2]”, 8.2 ± 1.22 s⁻¹ in “purified protein [3]” and 9.1 ± 2.71 s⁻¹ in the data set “purified protein [4]”.
